The values that follow are results of earlier work, collected in paper PMC10532679.

Some results are limits rather than exact numbers.

In data set [1] the target is PKA-C (Homo sapiens) (UniProt P17612).
Data set [2] has the same target. This is another data set of the same source.

Take PKA-RII (from UniProt P13861): in the data set with PKA-C (Homo sapiens) [1], the Kd is 100 pM. For the same substance, the Ki with PKA-C (Homo sapiens) [2] was < 1000 pM.

Usually Kd stands for the concentration at which binding is half-saturated. The Ki is the equilibrium dissociation constant of an inhibitor or competing ligand from its target.
